Test results as given in the supplement of paper PMC9112550, “Optimization of the antimicrobial peptide Bac7 by deep mutational scanning” (BMC Biology, 2022).

Each sequence was assayed on Escherichia coli TOP10 (assay: shrunken log2 fold change of peptide-encoding DNA abundance (4.5 h post-induction vs induction); higher = less antimicrobial activity (less host growth inhibition)). Conditions: time post-induction: 4.5 h; library: site-saturation at positions 5, 18, 19, 20.
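Note: peptides expressed intracellularly from a pBAD plasmid library in pooled LB shake-flask culture, induced with 0.3% L-arabinose, DNA abundance read by NGS, three biological replicates, DESeq2 with apeglm shrinkage.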

RRIRARPPRLPRPRPRPSCHPRP was tested. Which “shrunken log2 fold change” value did it give?
Its value is -0.138.

With RRIRARPPRLPRPRPRPSCRPRP as the sequence, how does the “shrunken log2 fold change” value read?
The value was 0.248.

Which “shrunken log2 fold change” value does the source give for RRIRARPPRLPRPRPRPSERPRP here?
The value was -0.132.

Which “shrunken log2 fold change” value does the source give for RRIRARPPRLPRPRPRPSEYPRP here?
The value was -0.264.

How did the “shrunken log2 fold change” value turn out when RRIRARPPRLPRPRPRPSFAPRP was run?
The value was 0.432.

How did the “shrunken log2 fold change” value turn out when RRIRARPPRLPRPRPRPSFHPRP was run?
Its value is -0.215.

For RRIRARPPRLPRPRPRPSGIPRP, which “shrunken log2 fold change” value is on record?
Its value is 0.0311.

With RRIRARPPRLPRPRPRPSHAPRP as the sequence, how does the “shrunken log2 fold change” value read?
The value was 0.333.

RRIRARPPRLPRPRPRPSHDPRP was tested. Which “shrunken log2 fold change” value did it give?
Its value is 0.225.

For RRIRARPPRLPRPRPRPSHRPRP, which “shrunken log2 fold change” value is on record?
Its value is 0.0188.

RRIRARPPRLPRPRPRPSKLPRP was tested. Which “shrunken log2 fold change” value did it give?
Its value is -0.118.

With RRIRARPPRLPRPRPRPSKPPRP as the sequence, how does the “shrunken log2 fold change” value read?
The value was -0.281.

With RRIRARPPRLPRPRPRPSMTPRP as the sequence, how does the “shrunken log2 fold change” value read?
Its value is 0.2.

How did the “shrunken log2 fold change” value turn out when RRIRARPPRLPRPRPRPSQFPRP was run?
The value was -0.0956.

RRIRARPPRLPRPRPRPSQGPRP was tested. Which “shrunken log2 fold change” value did it give?
Its value is -0.168.

With RRIRARPPRLPRPRPRPSQVPRP as the sequence, how does the “shrunken log2 fold change” value read?
The value was 0.0429.

How did the “shrunken log2 fold change” value turn out when RRIRARPPRLPRPRPRPSRCPRP was run?
The value was 0.228.

With RRIRARPPRLPRPRPRPSRDPRP as the sequence, how does the “shrunken log2 fold change” value read?
Its value is 0.199.

For RRIRARPPRLPRPRPRPSSWPRP, which “shrunken log2 fold change” value is on record?
Its value is 0.158.

Which “shrunken log2 fold change” value does the source give for RRIRARPPRLPRPRPRPSTMPRP here?
The value was -0.237.

For RRIRARPPRLPRPRPRPSTPPRP, which “shrunken log2 fold change” value is on record?
The value was 0.235.

For RRIRARPPRLPRPRPRPSYPPRP, which “shrunken log2 fold change” value is on record?
Its value is -0.312.

Which “shrunken log2 fold change” value does the source give for RRIRARPPRLPRPRPRPTAKPRP here?
Its value is 1.36.

For RRIRARPPRLPRPRPRPTAMPRP, which “shrunken log2 fold change” value is on record?
The value was 0.822.

With RRIRARPPRLPRPRPRPTAYPRP as the sequence, how does the “shrunken log2 fold change” value read?
Its value is 0.223.

How did the “shrunken log2 fold change” value turn out when RRIRARPPRLPRPRPRPTCNPRP was run?
Its value is 0.327.

Which “shrunken log2 fold change” value does the source give for RRIRARPPRLPRPRPRPTCRPRP here?
The value was 0.592.

RRIRARPPRLPRPRPRPTCTPRP was tested. Which “shrunken log2 fold change” value did it give?
The value was 0.764.

Which “shrunken log2 fold change” value does the source give for RRIRARPPRLPRPRPRPTDMPRP here?
The value was -0.0247.

Which “shrunken log2 fold change” value does the source give for RRIRARPPRLPRPRPRPTEEPRP here?
The value was -0.082.

Which “shrunken log2 fold change” value does the source give for RRIRARPPRLPRPRPRPTESPRP here?
Its value is 0.659.

How did the “shrunken log2 fold change” value turn out when RRIRARPPRLPRPRPRPTGMPRP was run?
The value was 0.52.

Which “shrunken log2 fold change” value does the source give for RRIRARPPRLPRPRPRPTHQPRP here?
Its value is 0.528.

Which “shrunken log2 fold change” value does the source give for RRIRARPPRLPRPRPRPTIPPRP here?
The value was 0.132.

With RRIRARPPRLPRPRPRPTKCPRP as the sequence, how does the “shrunken log2 fold change” value read?
Its value is 0.141.

Which “shrunken log2 fold change” value does the source give for RRIRARPPRLPRPRPRPTKGPRP here?
Its value is 0.308.

For RRIRARPPRLPRPRPRPTKRPRP, which “shrunken log2 fold change” value is on record?
Its value is 0.247.

With RRIRARPPRLPRPRPRPTKSPRP as the sequence, how does the “shrunken log2 fold change” value read?
The value was 0.032.

Which “shrunken log2 fold change” value does the source give for RRIRARPPRLPRPRPRPTLLPRP here?
The value was 0.286.

Which “shrunken log2 fold change” value does the source give for RRIRARPPRLPRPRPRPTLRPRP here?
Its value is 0.148.

How did the “shrunken log2 fold change” value turn out when RRIRARPPRLPRPRPRPTLTPRP was run?
Its value is 1.08.

For RRIRARPPRLPRPRPRPTMMPRP, which “shrunken log2 fold change” value is on record?
The value was 0.496.

For RRIRARPPRLPRPRPRPTMTPRP, which “shrunken log2 fold change” value is on record?
The value was 0.9.

RRIRARPPRLPRPRPRPTNVPRP was tested. Which “shrunken log2 fold change” value did it give?
The value was 0.0619.

With RRIRARPPRLPRPRPRPTPQPRP as the sequence, how does the “shrunken log2 fold change” value read?
The value was 0.745.

Which “shrunken log2 fold change” value does the source give for RRIRARPPRLPRPRPRPTPRPRP here?
Its value is 1.5.

How did the “shrunken log2 fold change” value turn out when RRIRARPPRLPRPRPRPTQAPRP was run?
The value was 1.06.

Which “shrunken log2 fold change” value does the source give for RRIRARPPRLPRPRPRPTQCPRP here?
The value was 0.391.

With RRIRARPPRLPRPRPRPTQHPRP as the sequence, how does the “shrunken log2 fold change” value read?
Its value is 0.698.

RRIRARPPRLPRPRPRPTRMPRP was tested. Which “shrunken log2 fold change” value did it give?
The value was 0.865.

Which “shrunken log2 fold change” value does the source give for RRIRARPPRLPRPRPRPTSDPRP here?
Its value is 0.954.

For RRIRARPPRLPRPRPRPTSIPRP, which “shrunken log2 fold change” value is on record?
The value was 0.109.

For RRIRARPPRLPRPRPRPTWPPRP, which “shrunken log2 fold change” value is on record?
Its value is 1.13.

How did the “shrunken log2 fold change” value turn out when RRIRARPPRLPRPRPRPVAAPRP was run?
Its value is 1.54.

RRIRARPPRLPRPRPRPVAQPRP was tested. Which “shrunken log2 fold change” value did it give?
Its value is 0.661.

For RRIRARPPRLPRPRPRPVAWPRP, which “shrunken log2 fold change” value is on record?
The value was 0.474.

For RRIRARPPRLPRPRPRPVCHPRP, which “shrunken log2 fold change” value is on record?
Its value is 0.321.

With RRIRARPPRLPRPRPRPVDMPRP as the sequence, how does the “shrunken log2 fold change” value read?
Its value is -0.109.

Which “shrunken log2 fold change” value does the source give for RRIRARPPRLPRPRPRPVDPPRP here?
Its value is 0.291.

How did the “shrunken log2 fold change” value turn out when RRIRARPPRLPRPRPRPVEDPRP was run?
Its value is 0.0532.

Which “shrunken log2 fold change” value does the source give for RRIRARPPRLPRPRPRPVFMPRP here?
The value was 0.0722.

With RRIRARPPRLPRPRPRPVGAPRP as the sequence, how does the “shrunken log2 fold change” value read?
The value was 0.731.

Which “shrunken log2 fold change” value does the source give for RRIRARPPRLPRPRPRPVGFPRP here?
Its value is 0.516.

How did the “shrunken log2 fold change” value turn out when RRIRARPPRLPRPRPRPVIQPRP was run?
Its value is 0.0904.

How did the “shrunken log2 fold change” value turn out when RRIRARPPRLPRPRPRPVLEPRP was run?
The value was 0.488.

RRIRARPPRLPRPRPRPVLYPRP was tested. Which “shrunken log2 fold change” value did it give?
The value was 0.0232.

How did the “shrunken log2 fold change” value turn out when RRIRARPPRLPRPRPRPVMKPRP was run?
Its value is -0.205.

With RRIRARPPRLPRPRPRPVNMPRP as the sequence, how does the “shrunken log2 fold change” value read?
Its value is -0.527.

Which “shrunken log2 fold change” value does the source give for RRIRARPPRLPRPRPRPVQRPRP here?
Its value is 0.615.

With RRIRARPPRLPRPRPRPVRCPRP as the sequence, how does the “shrunken log2 fold change” value read?
The value was 0.966.

With RRIRARPPRLPRPRPRPVRIPRP as the sequence, how does the “shrunken log2 fold change” value read?
The value was 0.00598.

With RRIRARPPRLPRPRPRPVRKPRP as the sequence, how does the “shrunken log2 fold change” value read?
The value was 0.763.

RRIRARPPRLPRPRPRPVRNPRP was tested. Which “shrunken log2 fold change” value did it give?
Its value is 0.142.

RRIRARPPRLPRPRPRPVSRPRP was tested. Which “shrunken log2 fold change” value did it give?
Its value is 0.661.

With RRIRARPPRLPRPRPRPVVAPRP as the sequence, how does the “shrunken log2 fold change” value read?
The value was 0.604.
